Reference: paper PMC5305270

T1: GST::DEP-1intra-DA (intracellular domain of C. elegans DEP-1 with the substrate trapping mutation D1241A, GST fusion), G5EGJ9
T1 chain: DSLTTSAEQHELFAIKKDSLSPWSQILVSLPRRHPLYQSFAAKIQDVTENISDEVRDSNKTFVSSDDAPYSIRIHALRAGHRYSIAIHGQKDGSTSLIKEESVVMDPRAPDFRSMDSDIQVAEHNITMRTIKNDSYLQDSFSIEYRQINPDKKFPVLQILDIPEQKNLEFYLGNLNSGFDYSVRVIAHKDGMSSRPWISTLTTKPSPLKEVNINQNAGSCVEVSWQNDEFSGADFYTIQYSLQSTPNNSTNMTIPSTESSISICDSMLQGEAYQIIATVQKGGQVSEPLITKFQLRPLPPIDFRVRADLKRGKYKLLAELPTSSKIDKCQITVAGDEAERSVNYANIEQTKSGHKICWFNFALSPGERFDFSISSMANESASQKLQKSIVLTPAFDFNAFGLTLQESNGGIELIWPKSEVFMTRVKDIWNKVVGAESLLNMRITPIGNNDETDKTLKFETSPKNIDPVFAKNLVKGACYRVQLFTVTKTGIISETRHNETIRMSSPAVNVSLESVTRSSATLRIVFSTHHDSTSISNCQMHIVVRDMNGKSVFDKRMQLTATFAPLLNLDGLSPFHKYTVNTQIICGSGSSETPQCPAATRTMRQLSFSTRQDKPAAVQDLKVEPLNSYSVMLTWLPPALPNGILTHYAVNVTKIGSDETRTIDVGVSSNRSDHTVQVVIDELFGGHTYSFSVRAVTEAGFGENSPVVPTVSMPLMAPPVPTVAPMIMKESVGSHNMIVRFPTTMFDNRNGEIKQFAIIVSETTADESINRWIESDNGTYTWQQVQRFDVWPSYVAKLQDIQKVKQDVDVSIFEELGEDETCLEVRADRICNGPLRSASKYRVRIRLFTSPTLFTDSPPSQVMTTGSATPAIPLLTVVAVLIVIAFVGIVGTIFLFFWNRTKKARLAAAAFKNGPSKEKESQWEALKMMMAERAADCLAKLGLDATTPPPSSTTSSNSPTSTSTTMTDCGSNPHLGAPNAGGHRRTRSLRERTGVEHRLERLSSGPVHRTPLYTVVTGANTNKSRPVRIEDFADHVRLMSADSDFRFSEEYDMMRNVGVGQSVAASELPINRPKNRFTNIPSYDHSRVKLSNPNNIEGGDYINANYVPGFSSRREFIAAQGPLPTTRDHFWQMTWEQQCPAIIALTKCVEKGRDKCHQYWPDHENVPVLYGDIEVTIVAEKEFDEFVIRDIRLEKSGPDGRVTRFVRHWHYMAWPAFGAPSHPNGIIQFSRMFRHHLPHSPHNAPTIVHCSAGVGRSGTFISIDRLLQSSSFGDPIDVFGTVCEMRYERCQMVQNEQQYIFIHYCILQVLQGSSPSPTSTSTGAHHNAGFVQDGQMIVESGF


Target: T1, GST::DEP-1intra-DA (intracellular …)
Experiment: GST pull-down, anti-GFP Western blot, densitometry
Conditions: chain shown with the change; three independent experiments; band intensities normalized to input; parent: est. 100; read off a plot

Row | Binder | percent of parent
1 | PAT-3::GFP (wild type), Q27874 Y792A; Y804A (protein) ASDWKTGEVTGKVVEKSEFPCYSLSRDNYTCSACIQYHESCAWCGAPMFDEKKPYARCDSRAKLMEHGCPNSYIEDPATKLDITEDSKLSDQGQVESEEEAVQIKPQEMYVEIRPKSRVRFNVTYRQAVDYPVDLYYLMDLSYSMKDDKQKLSELGDLLAERMRTVTKNFRLGFGSFIDKKLMPFIDPRIEKQLSPCPTPCAEPYGFKHQMSLTTNTAKFKAEVDKAEISGNLDAPEGGFDAVVQALACNKTIGWRERARKMIVFSTDAGFHFAGDGRLAGVVEPNDGTCHLDREGYYTETLNQDYPSIALLHQMIKDRKANVIFAVTKNNQDLYTQLSNALPDVSSSVGVLANDSRNIVDLIEKEYLKISEKIIMVDNANASEGLKLTYRSMCLDGTTLKDTNVCEGIRVGDEVQFEVTLENTHCIDKRDFVLRIGPSGLDETLIVNVKVLCDCDCERQDRIVTNSADCNGGDMVCGVCRCKGGNVGKYCECNRPGMSTAALNEKCKRTNESAICEGRGVCNCGRCECNPRANPEEQISGEFCECDNFNCPRHDRKICAEHGECNCGKCICAPGWTGRACECPISTDSCLSANGKICNGKGECICGRCRCFDSPDGNRYSGAKCEICPTCPTKCVEYKNCVMCQQWQTGPLNETACDQCEFKVIPVEELPNLNETTPCQFVDPADDCTFYYLYYYDEATDNATVWVRKHKDCPPPVPVLAIVLGVIAGIVILGILLLLLWKLLTVLHDRSEYATFNNERLMAKWDTNENPIAKQATTTFKNPVAAGKAN | 13%
2 | PAT-3::GFP (wild type), Q27874 Y804A (protein) ASDWKTGEVTGKVVEKSEFPCYSLSRDNYTCSACIQYHESCAWCGAPMFDEKKPYARCDSRAKLMEHGCPNSYIEDPATKLDITEDSKLSDQGQVESEEEAVQIKPQEMYVEIRPKSRVRFNVTYRQAVDYPVDLYYLMDLSYSMKDDKQKLSELGDLLAERMRTVTKNFRLGFGSFIDKKLMPFIDPRIEKQLSPCPTPCAEPYGFKHQMSLTTNTAKFKAEVDKAEISGNLDAPEGGFDAVVQALACNKTIGWRERARKMIVFSTDAGFHFAGDGRLAGVVEPNDGTCHLDREGYYTETLNQDYPSIALLHQMIKDRKANVIFAVTKNNQDLYTQLSNALPDVSSSVGVLANDSRNIVDLIEKEYLKISEKIIMVDNANASEGLKLTYRSMCLDGTTLKDTNVCEGIRVGDEVQFEVTLENTHCIDKRDFVLRIGPSGLDETLIVNVKVLCDCDCERQDRIVTNSADCNGGDMVCGVCRCKGGNVGKYCECNRPGMSTAALNEKCKRTNESAICEGRGVCNCGRCECNPRANPEEQISGEFCECDNFNCPRHDRKICAEHGECNCGKCICAPGWTGRACECPISTDSCLSANGKICNGKGECICGRCRCFDSPDGNRYSGAKCEICPTCPTKCVEYKNCVMCQQWQTGPLNETACDQCEFKVIPVEELPNLNETTPCQFVDPADDCTFYYLYYYDEATDNATVWVRKHKDCPPPVPVLAIVLGVIAGIVILGILLLLLWKLLTVLHDRSEYATFNNERLMAKWDTNENPIYKQATTTFKNPVAAGKAN | 92%
3 | PAT-3::GFP (wild type), Q27874 TTT796-798AAA (protein) ASDWKTGEVTGKVVEKSEFPCYSLSRDNYTCSACIQYHESCAWCGAPMFDEKKPYARCDSRAKLMEHGCPNSYIEDPATKLDITEDSKLSDQGQVESEEEAVQIKPQEMYVEIRPKSRVRFNVTYRQAVDYPVDLYYLMDLSYSMKDDKQKLSELGDLLAERMRTVTKNFRLGFGSFIDKKLMPFIDPRIEKQLSPCPTPCAEPYGFKHQMSLTTNTAKFKAEVDKAEISGNLDAPEGGFDAVVQALACNKTIGWRERARKMIVFSTDAGFHFAGDGRLAGVVEPNDGTCHLDREGYYTETLNQDYPSIALLHQMIKDRKANVIFAVTKNNQDLYTQLSNALPDVSSSVGVLANDSRNIVDLIEKEYLKISEKIIMVDNANASEGLKLTYRSMCLDGTTLKDTNVCEGIRVGDEVQFEVTLENTHCIDKRDFVLRIGPSGLDETLIVNVKVLCDCDCERQDRIVTNSADCNGGDMVCGVCRCKGGNVGKYCECNRPGMSTAALNEKCKRTNESAICEGRGVCNCGRCECNPRANPEEQISGEFCECDNFNCPRHDRKICAEHGECNCGKCICAPGWTGRACECPISTDSCLSANGKICNGKGECICGRCRCFDSPDGNRYSGAKCEICPTCPTKCVEYKNCVMCQQWQTGPLNETACDQCEFKVIPVEELPNLNETTPCQFVDPADDCTFYYLYYYDEATDNATVWVRKHKDCPPPVPVLAIVLGVIAGIVILGILLLLLWKLLTVLHDRSEYATFNNERLMAKWDTNENPIYKQAAAAFKNPVYAGKAN | 13%
4 | PAT-3::GFP (wild type), Q27874 Y772A (protein) ASDWKTGEVTGKVVEKSEFPCYSLSRDNYTCSACIQYHESCAWCGAPMFDEKKPYARCDSRAKLMEHGCPNSYIEDPATKLDITEDSKLSDQGQVESEEEAVQIKPQEMYVEIRPKSRVRFNVTYRQAVDYPVDLYYLMDLSYSMKDDKQKLSELGDLLAERMRTVTKNFRLGFGSFIDKKLMPFIDPRIEKQLSPCPTPCAEPYGFKHQMSLTTNTAKFKAEVDKAEISGNLDAPEGGFDAVVQALACNKTIGWRERARKMIVFSTDAGFHFAGDGRLAGVVEPNDGTCHLDREGYYTETLNQDYPSIALLHQMIKDRKANVIFAVTKNNQDLYTQLSNALPDVSSSVGVLANDSRNIVDLIEKEYLKISEKIIMVDNANASEGLKLTYRSMCLDGTTLKDTNVCEGIRVGDEVQFEVTLENTHCIDKRDFVLRIGPSGLDETLIVNVKVLCDCDCERQDRIVTNSADCNGGDMVCGVCRCKGGNVGKYCECNRPGMSTAALNEKCKRTNESAICEGRGVCNCGRCECNPRANPEEQISGEFCECDNFNCPRHDRKICAEHGECNCGKCICAPGWTGRACECPISTDSCLSANGKICNGKGECICGRCRCFDSPDGNRYSGAKCEICPTCPTKCVEYKNCVMCQQWQTGPLNETACDQCEFKVIPVEELPNLNETTPCQFVDPADDCTFYYLYYYDEATDNATVWVRKHKDCPPPVPVLAIVLGVIAGIVILGILLLLLWKLLTVLHDRSEAATFNNERLMAKWDTNENPIYKQATTTFKNPVYAGKAN | 37%
5 | PAT-3::GFP (wild type), Q27874 Y792A (protein) ASDWKTGEVTGKVVEKSEFPCYSLSRDNYTCSACIQYHESCAWCGAPMFDEKKPYARCDSRAKLMEHGCPNSYIEDPATKLDITEDSKLSDQGQVESEEEAVQIKPQEMYVEIRPKSRVRFNVTYRQAVDYPVDLYYLMDLSYSMKDDKQKLSELGDLLAERMRTVTKNFRLGFGSFIDKKLMPFIDPRIEKQLSPCPTPCAEPYGFKHQMSLTTNTAKFKAEVDKAEISGNLDAPEGGFDAVVQALACNKTIGWRERARKMIVFSTDAGFHFAGDGRLAGVVEPNDGTCHLDREGYYTETLNQDYPSIALLHQMIKDRKANVIFAVTKNNQDLYTQLSNALPDVSSSVGVLANDSRNIVDLIEKEYLKISEKIIMVDNANASEGLKLTYRSMCLDGTTLKDTNVCEGIRVGDEVQFEVTLENTHCIDKRDFVLRIGPSGLDETLIVNVKVLCDCDCERQDRIVTNSADCNGGDMVCGVCRCKGGNVGKYCECNRPGMSTAALNEKCKRTNESAICEGRGVCNCGRCECNPRANPEEQISGEFCECDNFNCPRHDRKICAEHGECNCGKCICAPGWTGRACECPISTDSCLSANGKICNGKGECICGRCRCFDSPDGNRYSGAKCEICPTCPTKCVEYKNCVMCQQWQTGPLNETACDQCEFKVIPVEELPNLNETTPCQFVDPADDCTFYYLYYYDEATDNATVWVRKHKDCPPPVPVLAIVLGVIAGIVILGILLLLLWKLLTVLHDRSEYATFNNERLMAKWDTNENPIAKQATTTFKNPVYAGKAN | 10%
